{"source": "patent US20240409645A1", "binders": {"B1": {"name": "FJ1427_P035MP03E10 (VHH)", "VHH": "EVQLVESGGGLVQPGGSLRLSCAASGFTFRNYAMSWVRQAPGKGLEWVGGITGEGLGTIYQDSVEGRFTISRNNAKNTLYLQMNSLRSEDTAVYYCTKMASGTLFRDKPYEYTSRGQGTQVTVSS"}, "B2": {"name": "FJ1427 P035MP03B11 (VHH)", "VHH": "EVQLVESGGGLVQAGGSLRLACALSGDVFVRYTMAWFRQAPGKEREFVASVTDSGRTTDYVASVQGRFTVSRDNNKNTVYLQMNSLKPEDTAVYYCAANTDYFQIRSLDRNTWGQGTQVTVSS"}, "B3": {"name": "FJ1427 P035MP03C12 (VHH)", "VHH": "QVQLVESGGGLVQAGGSLRLSCAASGRAFSTYSMGWFRQTPGKEREFVAIISESGGIIDYGDSVKGRFTLSRDNAKNTVSLQMSSLQPEDTAVYYCAAARDWFARTAYQYDYWGQGTQVTVSA"}, "B4": {"name": "FJ1427 P035MP03D11 (VHH)", "VHH": "QVQLVESGGGLVQAGGSLRLSCAASGRTFSTTDVGWFRQAPGKEREFVAAITWSSHSTLYADSVEGRFTVTRENAKNTVYLQMNSLKPEDTAVYYCAAVRRGWAVVRTEGAYDFWGQGTQVTVSA"}, "B5": {"name": "FJ1427_P035MP03D10 (VHH)", "VHH": "QVQLQESGGGLVQAGDSLRLSCVVSGRDFSGYTMGWFRQPPGKEREFVALITWSTGRVHYTDSVEGRFTISRDSAKNTVYLQMNSLKPEDTAVYTCAAGRVGYTTNLHSYDYSGQGTQVIVSA"}, "B6": {"name": "FJ1427_P035MP03G10 (VHH)", "VHH": "QVQLVESGGGLVQAGGSLRLSCAASGRSYAMGWFRQAPGKEREFVAAISWSASSTYYSESVKGRFTISRENAKNTVYLQMNSLKPEDTAVYYCAVRASPFVAGSYDPSDDPADYGSWGQGTQVIVSS"}, "B7": {"name": "FJ1427_P035MP03H09 (VHH)", "VHH": "QVQLVESGGGLVQAGGSLRLSCAASGSIFSINAMGWFRQAPGKEREFVAAISRSGGSTAYVDSVKGRFTISRDNSKNMVHLQMNSLKSEDEAVYYCAATAAVGWTSRWITTDFDSWGQGTQVTVSS"}, "B8": {"name": "FJ1427 P035MP03F11 (VHH)", "VHH": "QVQLVESGGGLAQAGGSLRLSCAASGRTFSQDAKAWFRQAPGKEREFVAAITWSGRDTDYADSVKGRFTIARDNAKNTVYLQMDSLKPEDTAVYYCAVYPQGTIGPYFRSSNHYDYWGQGTQVTVSS"}, "B9": {"name": "FJ1427 P035MP03C10 (VHH)", "VHH": "QVQLVESGGGLVQAGGSLRLSCAASGRTFSTTEMGWFRQAPGKEREFVAAITWTGRGTMYAESVEGRFTISRENAKNMVYLQMNSLKPEDTAIYYCAAARRGRAAVRSEGGYDFWGQGTQVTVSS"}, "B10": {"name": "FJ1427 P035MP03H10 (VHH)", "VHH": "B9 VHH"}, "B11": {"name": "FJ1427 P035MP03B10 (VHH)", "VHH": "QVQLVESGGGLVQAGGSLRLSCVVSGDVFVRYTMAWFRQAPGKEREFVAVVTDSGRTTEYVDSVKGRFTVSRDNAKNTVYLQMNNLKPEDTAVYYCAANTDYFQIRSVDNNAWGQGTQVTVSS"}, "B12": {"name": "FJ1427 P035MP03B12 (VHH)", "VHH": "B2 VHH with A21S, L24A, S50A, T58A, A62D, Q65K, N75A, S85N"}, "B13": {"name": "FJ1427_P035MP03E11 (VHH)", "VHH": "B11 VHH with Q1E, V50A, K87E"}}, "note": "Changes are numbered by the printed parent chain."}
{"target": "T1, mouse IL-2Rβ (mouse) (UniProt P16297)", "T1 sequence (looked up)": "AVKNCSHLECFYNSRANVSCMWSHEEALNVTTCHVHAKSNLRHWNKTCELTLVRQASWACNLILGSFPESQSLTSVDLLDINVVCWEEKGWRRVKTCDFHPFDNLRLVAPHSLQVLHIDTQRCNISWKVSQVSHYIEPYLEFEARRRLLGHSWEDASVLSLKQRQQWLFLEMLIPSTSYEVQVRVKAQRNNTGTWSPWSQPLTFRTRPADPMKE", "assay": "P.E. binding ELISA on coated protein", "units": {"P.E. binding ELISA OD": "OD450 nm"}}
{"binder": "B1", "P.E. binding ELISA OD": 0.048}
{"binder": "B2", "P.E. binding ELISA OD": 0.052}
{"binder": "B3", "P.E. binding ELISA OD": 0.047}
{"binder": "B4", "P.E. binding ELISA OD": 0.049}
{"binder": "B5", "P.E. binding ELISA OD": 0.047}
{"binder": "B6", "P.E. binding ELISA OD": 0.048}
{"binder": "B7", "P.E. binding ELISA OD": 0.052}
{"binder": "B8", "P.E. binding ELISA OD": 0.048}
{"binder": "B9", "P.E. binding ELISA OD": 0.047}
{"binder": "B10", "P.E. binding ELISA OD": 0.049}
{"binder": "B11", "P.E. binding ELISA OD": 0.05}
{"binder": "B12", "P.E. binding ELISA OD": 0.049}
{"binder": "B13", "P.E. binding ELISA OD": 0.05}
